Columns and labels:
[1] = biological target: T1, dimeric cynomolgus monkey PD-1 fusion protein (fused with mouse IgG2a Fc) (cynomolgus monkey; mouse, UniProt B0LAJ3 25-170); experiment: SPR (Biacore T200); cynomolgus monkey against human PD-1 fusion
T1 construct: Soluble dimeric analyte in SPR; also called cynomolgus PD-1; soluble PD-1 fusion
Procedure: (§1) SPR analyses were carried out using a Biacore T200 system and kinetic constants were determined using Biacore T200 Evaluation software. […] GE anti-human IgG (Fc-specific) was immobilized on a Biacore CM5 chip. An exemplary anti-PD-1 antibody (having heavy and light chains as set forth in SEQ ID NOs: 1 & 2, respectively) was then captured onto this surface […]. Next, dimeric human or cynomolgus monkey PD-1 fusion proteins (fused with mouse IgG2a Fc) in a two-fold serial dilution series were flowed over the captured exemplary antibody and dissociation was monitored. Capture and analyte binding were performed in HBS-EP+ buffer. Chips were regenerated between each run using 3 M MgCl₂. The resulting sensorgrams were fitted globally using a 1:1 binding model to calculate on- and off-rates (kassoc and kdissoc, respectively) and dissociation constants as a measure of overall affinity (KD).

[2] = biological target: T2, full length native cynomolgus monkey PD-1 (on stably transfected CHO-K1 cells); native on cynomolgus monkey … (cynomolgus monkey, UniProt B0LAJ3 25-288); experiment: flow cytometry on CHO-K1 cells stably expressing full length cynomolgus monkey PD-1; PE anti-human IgG4 detection
T2 construct: The same entry is used for the CHO-K1 transfectants and for PD-1 natively expressed on cynomolgus monkey PBMCs; also called cell-surface cynomolgus monkey PD-1
Procedure: (§2) Flow cytometry studies were performed with CHO-K1 cell line clones in which either full length native human or cynomolgus monkey PD-1 was stably transfected. An exemplary anti-PD-1 antibody (having heavy and light chains as set forth in SEQ ID NOs: 1 & 2, respectively) was diluted in 3-fold dilutions. Dilutions of exemplary antibody were added to human or cynomolgus monkey PD-1 expressing CHO-K1 cells (1E5 cells) and incubated on ice. Cells were washed twice and incubated on ice with PE-conjugated mouse anti-human IgG4 to detect antibody binding. Cells were washed and resuspended in the presence of propidium iodide to exclude dead cells and fixed and analyzed for fluorescence on a BD FACSArray instrument (BD Biosciences). Data were analyzed for median fluorescence intensity, graphed, and curves fitted for EC₅₀ value calculation in GraphPad Prism (GraphPad Software, Inc.) using a non-linear (sigmoidal) regression analysis.

[3] = biological target: T3, full length native human PD-1 (on stably transfected CHO-K1 cells; native on human PBMCs) (human, UniProt Q15116 25-288); experiment: flow cytometry competition on human PD-1 CHO-K1 cells; competitor PD-L1-mFc-DyL650
T3 construct: whole, on cells; The same entry is used for the CHO-K1 transfectants and for PD-1 natively expressed on human PBMCs; also called cell-surface human PD-1; human PD-1 CHO-K1 cells
Procedure: (§3) In these studies, human PD-L1 and PD-L2 mouse IgG1 Fc fusion proteins were expressed, purified, and labeled with DyL650. The dose-response of binding of both PD-L1 and PD-L2 to PD-1 CHO-K1 cells was determined. To quantify blocking of ligand binding to PD-1 CHO-K1 cells, exemplary anti-PD-1 antibody or IgG4 control antibody in a 3-fold dilution series was pre-mixed with PD-L1-mFc-DyL650 or PD-L2-mFc-DyL650. The mixture was added to human PD-1 CHO-K1 cells (3E5 cells) and incubated at 4° C. Cells were washed once and re-suspended in the presence of propidium iodide and DyL650-PD-L1 or DyL650-PD-L2. Binding was analyzed on a BD FACSArray (BD Bioscience), excluding dead cells.

[4] = biological target: T2, full length native cynomolgus monkey …; experiment: receptor occupancy by flow cytometry on cynomolgus monkey PBMCs (CD3+/IgG4+ cells, PE-labeled anti-IgG4), pre-incubation with a dilution series of the antibody [panel Cynomolgus monkey]
Text: (§4) For these studies, PBMCs from healthy human donors or cynomolgus monkeys were used. Human PBMCs were isolated from buffy coats obtained from the Indiana Blood Center and cynomolgus monkey PBMCs were isolated from peripheral blood collected aseptically into sodium heparin obtained from Worldwide Primates, Inc. In both cases, separation was by Ficoll using Ficoll-Paque 1.077 and cryopreserved for later use.
(§5) On the day of the experiments, the cryopreserved cells were thawed and the cell concentration was adjusted to 2E6 cells/ml prior to resting overnight at 37° C. in a humidified CO₂ incubator. Cells were then pelleted and re-suspended in 1 ml of media and recounted. The cell concentration was adjusted to 4E5 cells/150 μl of media. Human AB Serum (40 μl/ml) was added to block Fc receptors. After centrifugation, the cells were incubated with exemplary anti-PD-1 antibody at 4° C. PBMCs were then washed three times before being split into two conditions. One set of cells was incubated with exemplary anti-PD-1 antibody and the other set with IgG4 for 30 minutes at 4° C. The PBMCs were then washed four times prior to being stained with FITC-labeled anti-CD3 and PE-labeled anti-IgG4 antibodies. […] The number of CD3+/IgG4+ cells was determined for each parameter and the percentage of occupancy for the exemplary anti-PD-1 antibody was determined as follows: […]

[5] = biological target: T4, dimeric human PD-1 fusion protein (fused with mouse IgG2a Fc) (human; mouse, UniProt Q15116 25-167, limits assumed); experiment: SPR (Biacore T200); antibody captured on anti-human IgG Fc chip, dimeric PD-1-mouse IgG2a Fc as analyte, 1:1 model
T4 construct: Soluble dimeric analyte in SPR; also called soluble PD-1 fusion; not shown: mouse IgG2a Fc
Procedure: as §1

[6] = biological target: T1, dimeric cynomolgus monkey PD-1 fusion …; experiment: as above
Procedure: as §1

[7] = biological target: T3, full length native human PD-1 (on …); experiment: flow cytometry competition on human PD-1 CHO-K1 cells; competitor PD-L2-mFc-DyL650
Procedure: as §3

[8] = biological target: T3, full length native human PD-1 (on …); experiment: receptor occupancy by flow cytometry on human PBMCs (CD3+/IgG4+ cells, PE-labeled anti-IgG4), pre-incubation with a dilution series of the antibody [panel Human]
Text: as §4, §5

[9] = biological target: T3, full length native human PD-1 (on …); experiment: flow cytometry on CHO-K1 cells stably expressing full length human PD-1; PE anti-human IgG4 detection
Procedure: as §2

T1 sequence (B0LAJ3 entry or part of it limits assumed): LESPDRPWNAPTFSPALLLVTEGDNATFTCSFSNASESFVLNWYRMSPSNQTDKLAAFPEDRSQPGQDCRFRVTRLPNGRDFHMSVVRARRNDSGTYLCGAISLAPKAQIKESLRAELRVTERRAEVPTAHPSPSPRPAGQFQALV
T4 sequence (Q15116 25-167 limits assumed): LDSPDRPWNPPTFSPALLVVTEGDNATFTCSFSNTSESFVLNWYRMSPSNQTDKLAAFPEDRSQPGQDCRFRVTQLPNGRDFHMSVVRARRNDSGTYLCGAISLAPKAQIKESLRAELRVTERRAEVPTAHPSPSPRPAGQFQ
T3 sequence (Q15116 25-288): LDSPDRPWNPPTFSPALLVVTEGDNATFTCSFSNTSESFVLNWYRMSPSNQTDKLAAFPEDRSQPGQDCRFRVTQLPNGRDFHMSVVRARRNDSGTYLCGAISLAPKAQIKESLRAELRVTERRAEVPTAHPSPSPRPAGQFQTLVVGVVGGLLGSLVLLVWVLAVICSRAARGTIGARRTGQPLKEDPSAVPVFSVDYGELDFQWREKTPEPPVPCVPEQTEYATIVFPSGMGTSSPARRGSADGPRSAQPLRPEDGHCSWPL
T2 sequence (B0LAJ3 entry or part of it limits assumed): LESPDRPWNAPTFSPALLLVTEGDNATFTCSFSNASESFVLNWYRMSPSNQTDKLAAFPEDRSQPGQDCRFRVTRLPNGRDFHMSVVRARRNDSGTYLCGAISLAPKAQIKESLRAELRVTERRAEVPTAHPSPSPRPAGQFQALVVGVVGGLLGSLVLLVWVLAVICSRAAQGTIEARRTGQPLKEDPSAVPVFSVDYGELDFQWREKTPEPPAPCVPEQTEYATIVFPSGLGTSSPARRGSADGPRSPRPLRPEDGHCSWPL

- fold difference in KD against human PD-1 [1]: < 2 fold
- EC50 [2]: 3.4 nM
- IC50 [3]: 1.8 nM
- EC50 (read off the curve) [4]: ~100 ng/mL
- Kd [5]: 0.3 nM
- koff [5]: 0.00017 s⁻¹
- kon [5]: 570000 M⁻¹ s⁻¹
- Kd [6]: 0.53 nM
- koff [6]: 0.00023 s⁻¹
- kon [6]: 430000 M⁻¹ s⁻¹
- IC50 [7]: 1.5 nM
- EC50 (read off the curve) [8]: ~200 ng/mL
- EC50 [9]: 2 nM
B1: exemplary anti-PD-1 antibody (having heavy and light chains as set forth in SEQ ID NOs: 1 & 2, respectively) (antibody, human IgG4 S228P, kappa, V domains shown)
VH: EVQLLESGGGLVQPGGSLRLSCAASGFTFSSYDMSWVRQAPGKGLEWVSTISGGGSYTYYQDSVKGRFTISRDNSKNTLYLQMNSLRAEDTAVYYCASPYYAMDYWGQGTTVTVSS
VL: DIQLTQSPSFLSAYVGDRVTITCKASQDVGTAVAWYQQKPGKAPKLLIYWASTLHTGVPSRFSGSGSGTEFTLTISSLQPEDFATYYCQHYSSYPWTFGQGTKLEIKR
modifications: occupied N-glycosylation site at asparagine residue 293 of SEQ ID NO:1
notes: Humanized IgG4 (human IGHG4*01) with kappa light chain (IGKC*01); also called exemplary humanized monoclonal anti-PD-1 antibody; anti-PD-1 mAb
